Measurements: patent US20200115430A1 (I2O THERAPEUTICS, published 2020)
Starred links: 1 amine or outer side, 2 acyl side, 3 side chain; linkers in the order of their positions; H or OH if unused. Positions of bridges follow the written chain, without caps; N, C: chain ends. Groups on a side chain read outwards from the residue. No end group written: not given here. *: point of attachment. C20 diacid = O=C(O)CCCCCCCCCCCCCCCCCCC(=O)*; C18 diacid = O=C(O)CCCCCCCCCCCCCCCCC(=O)*; γGlu = O=C(O)[C@H](CCC(=O)[*:2])N[*:1]

B1: Compound A114 (peptide)
peptide: K([γGlu-γGlu-C20 diacid])CNTSTCATSRLANFLQKSSNNFGPILPPTKVGSETY-NH2
modifications: disulfide 2-7; N-terminus assumed
SMILES: CC[C@H](C)[C@H](NC(=O)[C@@H]1CCCN1C(=O)CNC(=O)[C@H](Cc1ccccc1)NC(=O)[C@H](CC(N)=O)NC(=O)[C@H](CC(N)=O)NC(=O)[C@H](CO)NC(=O)[C@H](CO)NC(=O)[C@H](CCCCN)NC(=O)[C@H](CCC(N)=O)NC(=O)[C@H](CC(C)C)NC(=O)[C@H](Cc1ccccc1)NC(=O)[C@H](CC(N)=O)NC(=O)[C@H](C)NC(=O)[C@H](CC(C)C)NC(=O)[C@H](CCCNC(=N)N)NC(=O)[C@H](CO)NC(=O)[C@@H](NC(=O)[C@H](C)NC(=O)[C@@H]1CSSC[C@H](NC(=O)[C@@H](N)CCCCNC(=O)CC[C@H](NC(=O)CC[C@H](NC(=O)CCCCCCCCCCCCCCCCCCC(=O)O)C(=O)O)C(=O)O)C(=O)N[C@@H](CC(N)=O)C(=O)N[C@@H]([C@@H](C)O)C(=O)N[C@@H](CO)C(=O)N[C@@H]([C@@H](C)O)C(=O)N1)[C@@H](C)O)C(=O)N[C@@H](CC(C)C)C(=O)N1CCC[C@H]1C(=O)N1CCC[C@H]1C(=O)N[C@H](C(=O)N[C@@H](CCCCN)C(=O)N[C@H](C(=O)NCC(=O)N[C@@H](CO)C(=O)N[C@@H](CCC(=O)O)C(=O)N[C@H](C(=O)N[C@@H](Cc1ccc(O)cc1)C(N)=O)[C@@H](C)O)C(C)C)[C@@H](C)O
B2: Compound A55 (peptide)
peptide: K(C18 diacid)CNTSTCATSRLANFLQKSSNNFGPILPPTKVGSETY-NH2
modifications: disulfide 2-7; N-terminus assumed
SMILES: CC[C@H](C)[C@H](NC(=O)[C@@H]1CCCN1C(=O)CNC(=O)[C@H](Cc1ccccc1)NC(=O)[C@H](CC(N)=O)NC(=O)[C@H](CC(N)=O)NC(=O)[C@H](CO)NC(=O)[C@H](CO)NC(=O)[C@H](CCCCN)NC(=O)[C@H](CCC(N)=O)NC(=O)[C@H](CC(C)C)NC(=O)[C@H](Cc1ccccc1)NC(=O)[C@H](CC(N)=O)NC(=O)[C@H](C)NC(=O)[C@H](CC(C)C)NC(=O)[C@H](CCCNC(=N)N)NC(=O)[C@H](CO)NC(=O)[C@@H](NC(=O)[C@H](C)NC(=O)[C@@H]1CSSC[C@H](NC(=O)[C@@H](N)CCCCNC(=O)CCCCCCCCCCCCCCCCC(=O)O)C(=O)N[C@@H](CC(N)=O)C(=O)N[C@@H]([C@@H](C)O)C(=O)N[C@@H](CO)C(=O)N[C@@H]([C@@H](C)O)C(=O)N1)[C@@H](C)O)C(=O)N[C@@H](CC(C)C)C(=O)N1CCC[C@H]1C(=O)N1CCC[C@H]1C(=O)N[C@H](C(=O)N[C@@H](CCCCN)C(=O)N[C@H](C(=O)NCC(=O)N[C@@H](CO)C(=O)N[C@@H](CCC(=O)O)C(=O)N[C@H](C(=O)N[C@@H](Cc1ccc(O)cc1)C(N)=O)[C@@H](C)O)C(C)C)[C@@H](C)O
B3: Compound A73 (peptide)
peptide: SCNTSTCATQRLANEK([γGlu-C20 diacid])HKSSNNFGPILPPTKVGSETY-NH2
modifications: disulfide 2-7; N-terminus assumed
SMILES: CC[C@H](C)[C@H](NC(=O)[C@@H]1CCCN1C(=O)CNC(=O)[C@H](Cc1ccccc1)NC(=O)[C@H](CC(N)=O)NC(=O)[C@H](CC(N)=O)NC(=O)[C@H](CO)NC(=O)[C@H](CO)NC(=O)[C@H](CCCCN)NC(=O)[C@H](Cc1c[nH]cn1)NC(=O)[C@H](CCCCNC(=O)CC[C@H](NC(=O)CCCCCCCCCCCCCCCCCCC(=O)O)C(=O)O)NC(=O)[C@H](CCC(=O)O)NC(=O)[C@H](CC(N)=O)NC(=O)[C@H](C)NC(=O)[C@H](CC(C)C)NC(=O)[C@H](CCCNC(=N)N)NC(=O)[C@H](CCC(N)=O)NC(=O)[C@@H](NC(=O)[C@H](C)NC(=O)[C@@H]1CSSC[C@H](NC(=O)[C@@H](N)CO)C(=O)N[C@@H](CC(N)=O)C(=O)N[C@@H]([C@@H](C)O)C(=O)N[C@@H](CO)C(=O)N[C@@H]([C@@H](C)O)C(=O)N1)[C@@H](C)O)C(=O)N[C@@H](CC(C)C)C(=O)N1CCC[C@H]1C(=O)N1CCC[C@H]1C(=O)N[C@H](C(=O)N[C@@H](CCCCN)C(=O)N[C@H](C(=O)NCC(=O)N[C@@H](CO)C(=O)N[C@@H](CCC(=O)O)C(=O)N[C@H](C(=O)N[C@@H](Cc1ccc(O)cc1)C(N)=O)[C@@H](C)O)C(C)C)[C@@H](C)O
B4: Compound A116 (peptide)
peptide: K([γGlu-C20 diacid])CNTSTCATSRLANFLQKSSNNFGPILPPTKVGSETY-NH2
modifications: disulfide 2-7; N-terminus assumed
SMILES: CC[C@H](C)[C@H](NC(=O)[C@@H]1CCCN1C(=O)CNC(=O)[C@H](Cc1ccccc1)NC(=O)[C@H](CC(N)=O)NC(=O)[C@H](CC(N)=O)NC(=O)[C@H](CO)NC(=O)[C@H](CO)NC(=O)[C@H](CCCCN)NC(=O)[C@H](CCC(N)=O)NC(=O)[C@H](CC(C)C)NC(=O)[C@H](Cc1ccccc1)NC(=O)[C@H](CC(N)=O)NC(=O)[C@H](C)NC(=O)[C@H](CC(C)C)NC(=O)[C@H](CCCNC(=N)N)NC(=O)[C@H](CO)NC(=O)[C@@H](NC(=O)[C@H](C)NC(=O)[C@@H]1CSSC[C@H](NC(=O)[C@@H](N)CCCCNC(=O)CC[C@H](NC(=O)CCCCCCCCCCCCCCCCCCC(=O)O)C(=O)O)C(=O)N[C@@H](CC(N)=O)C(=O)N[C@@H]([C@@H](C)O)C(=O)N[C@@H](CO)C(=O)N[C@@H]([C@@H](C)O)C(=O)N1)[C@@H](C)O)C(=O)N[C@@H](CC(C)C)C(=O)N1CCC[C@H]1C(=O)N1CCC[C@H]1C(=O)N[C@H](C(=O)N[C@@H](CCCCN)C(=O)N[C@H](C(=O)NCC(=O)N[C@@H](CO)C(=O)N[C@@H](CCC(=O)O)C(=O)N[C@H](C(=O)N[C@@H](Cc1ccc(O)cc1)C(N)=O)[C@@H](C)O)C(C)C)[C@@H](C)O
B5: Compound A76 (peptide)
peptide: SCNTSTCATQRLANEK([γGlu-C18 diacid])HKSSNNFGPILPPTKVGSETY-NH2
modifications: disulfide 2-7; N-terminus assumed
SMILES: CC[C@H](C)[C@H](NC(=O)[C@@H]1CCCN1C(=O)CNC(=O)[C@H](Cc1ccccc1)NC(=O)[C@H](CC(N)=O)NC(=O)[C@H](CC(N)=O)NC(=O)[C@H](CO)NC(=O)[C@H](CO)NC(=O)[C@H](CCCCN)NC(=O)[C@H](Cc1c[nH]cn1)NC(=O)[C@H](CCCCNC(=O)CC[C@H](NC(=O)CCCCCCCCCCCCCCCCC(=O)O)C(=O)O)NC(=O)[C@H](CCC(=O)O)NC(=O)[C@H](CC(N)=O)NC(=O)[C@H](C)NC(=O)[C@H](CC(C)C)NC(=O)[C@H](CCCNC(=N)N)NC(=O)[C@H](CCC(N)=O)NC(=O)[C@@H](NC(=O)[C@H](C)NC(=O)[C@@H]1CSSC[C@H](NC(=O)[C@@H](N)CO)C(=O)N[C@@H](CC(N)=O)C(=O)N[C@@H]([C@@H](C)O)C(=O)N[C@@H](CO)C(=O)N[C@@H]([C@@H](C)O)C(=O)N1)[C@@H](C)O)C(=O)N[C@@H](CC(C)C)C(=O)N1CCC[C@H]1C(=O)N1CCC[C@H]1C(=O)N[C@H](C(=O)N[C@@H](CCCCN)C(=O)N[C@H](C(=O)NCC(=O)N[C@@H](CO)C(=O)N[C@@H](CCC(=O)O)C(=O)N[C@H](C(=O)N[C@@H](Cc1ccc(O)cc1)C(N)=O)[C@@H](C)O)C(C)C)[C@@H](C)O

molecular target: T1, human calcitonin receptor (human, UniProt P30988 25-474); assay: cell-based or functional assay
T1 sequence (looked up): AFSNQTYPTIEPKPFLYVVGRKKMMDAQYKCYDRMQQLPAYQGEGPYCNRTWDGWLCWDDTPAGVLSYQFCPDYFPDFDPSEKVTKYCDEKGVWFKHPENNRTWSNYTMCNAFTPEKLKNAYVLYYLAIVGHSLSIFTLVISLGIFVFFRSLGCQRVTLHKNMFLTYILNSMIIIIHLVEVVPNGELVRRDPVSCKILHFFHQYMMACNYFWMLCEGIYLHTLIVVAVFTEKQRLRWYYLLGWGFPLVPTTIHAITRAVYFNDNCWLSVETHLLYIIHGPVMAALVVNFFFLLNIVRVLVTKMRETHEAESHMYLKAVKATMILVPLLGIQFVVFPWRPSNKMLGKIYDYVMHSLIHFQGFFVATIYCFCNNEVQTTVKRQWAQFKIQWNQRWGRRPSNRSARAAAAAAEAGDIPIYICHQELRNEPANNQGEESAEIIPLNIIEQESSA

| Binder | pEC50 (cAMP accumulation), 0% HSA [pEC50] | pEC50 (cAMP accumulation), 0.1% HSA [pEC50] | pEC50 (cAMP accumulation), 4% HSA [pEC50] |
| --- | --- | --- | --- |
| B1 | 11.7 | 10.4 | 8.8 |
| B2 | 11.3 | 10.2 | 8.8 |
| KCNTATCATQRLANFLVHSSNNFGPILPPTNVGSNTY-NH2 (disulfide 2-7; ends not checked) [Pramlintide] | 11.4 | 11.2 | 11.1 |
| B3 | 11.3 | 9.6 | 7.9 |
| B4 | 11.7 | 10.5 | 9.3 |
| B5 | 10.5 | 9.4 | 8.1 |

molecular target: T2, human amylin 3 receptor (human, UniProt P30988 25-474; O60896 24-148); assay: cell-based or functional assay
T2 sequence (looked up) 1: T1 sequence (looked up)
T2 sequence (looked up) 2: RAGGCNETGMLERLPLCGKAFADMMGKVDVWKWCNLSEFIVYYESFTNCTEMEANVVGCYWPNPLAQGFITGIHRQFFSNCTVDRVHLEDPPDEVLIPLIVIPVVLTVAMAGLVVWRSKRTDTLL

| Binder | pEC50 (cAMP accumulation), 0% HSA [pEC50] | pEC50 (cAMP accumulation), 0.1% HSA [pEC50] | pEC50 (cAMP accumulation), 4% HSA [pEC50] |
| --- | --- | --- | --- |
| B1 | 12.2 | 10.7 | 9.5 |
| B2 | 12.2 | 11.2 | 9.6 |
| KCNTATCATQRLANFLVHSSNNFGPILPPTNVGSNTY-NH2 (disulfide 2-7; ends not checked) [Pramlintide] | 12.5 | 12.6 | 12.5 |
| B3 | 12.1 | 10.6 | 8.8 |
| B4 | 12 | 10.8 | 9.5 |
| B5 | 11.7 | 10.5 | 8.7 |
